From patent publication US6084068, “Elongin A and C functional domains” (Oklahoma Medical Research Foundation, dated 2000)

Assays:
wild type Elongin A = target: T1, wild type Elongin A (rat); test: refolded with wild type Elongin A and B; TSK SP-NPR HPLC, SDS-PAGE, silver staining
T1 chain: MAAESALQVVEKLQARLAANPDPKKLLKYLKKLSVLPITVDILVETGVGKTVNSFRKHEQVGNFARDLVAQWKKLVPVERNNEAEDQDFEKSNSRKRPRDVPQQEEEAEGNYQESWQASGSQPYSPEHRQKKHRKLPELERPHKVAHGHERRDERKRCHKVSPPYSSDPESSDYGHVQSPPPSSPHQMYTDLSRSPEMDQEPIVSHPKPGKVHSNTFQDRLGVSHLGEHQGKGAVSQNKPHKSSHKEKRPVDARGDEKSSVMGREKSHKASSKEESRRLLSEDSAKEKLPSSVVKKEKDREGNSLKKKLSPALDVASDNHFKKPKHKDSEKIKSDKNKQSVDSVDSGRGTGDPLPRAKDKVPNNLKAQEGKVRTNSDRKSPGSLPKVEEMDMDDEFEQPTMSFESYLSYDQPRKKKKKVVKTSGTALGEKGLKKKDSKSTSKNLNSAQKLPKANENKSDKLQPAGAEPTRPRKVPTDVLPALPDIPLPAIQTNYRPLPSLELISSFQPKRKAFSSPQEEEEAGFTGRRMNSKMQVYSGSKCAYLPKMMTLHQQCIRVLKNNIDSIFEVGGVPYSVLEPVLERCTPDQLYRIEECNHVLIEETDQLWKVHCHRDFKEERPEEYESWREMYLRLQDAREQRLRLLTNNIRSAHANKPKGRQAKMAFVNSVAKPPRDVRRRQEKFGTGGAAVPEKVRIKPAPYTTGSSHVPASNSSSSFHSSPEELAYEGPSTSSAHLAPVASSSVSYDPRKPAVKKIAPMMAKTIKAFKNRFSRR

wild type Elongin B = wild type Elongin B (rat, UniProt P62870); test: refolded with wild type Elongin B; TSK DEAE-NPR HPLC, SDS-PAGE, silver staining
Experimental: Figure 10A: FIG. 10A. […] Aliquots of the indicated column fractions were analyzed by SDS-PAGE, and proteins were visualized by silver staining. Figure 10B: FIG. 10B. N-terminal, C-terminal, and internal Elongin C deletion mutants were assayed for their abilities to form Elongin BC complexes as described.
~6 µg of Elongin B was mixed with ~6 µg of either wild type or mutant Elongin C and diluted 5-fold with 40 mM Hepes-NaOH (pH 7.9), 100 mM KCl, 2 mM DTT, 50 µM ZnSO_4, 0.1 mM EDTA, and 10% (v/v) glycerol. After incubation for 90 min on ice, the mixtures were dialyzed at 4° C. overnight against 40 mM Tris-HCl (pH 7.9), 0.1 mM EDTA, 10% (v/v) glycerol, and 40 mM KCl. Following dialysis, the mixtures were centrifuged at 60,000×g for 15 min at 4° C. The resulting supernatants were applied to TSK DEAE-NPR columns (35 mm×4.6 mm, Toso-Haas) pre-equilibrated in 40 mM Tris-HCl (pH 7.9), 0.1 mM EDTA, 1 mM DTT, 10% (v/v) glycerol, and 40 mM KCl and fractionated using a SMART microchromatography system (Pharmacia) at 8° C. The columns were eluted at 0.3 ml/min with a 3 ml linear gradient from 0.04 to 0.5M KCl in 40 mM Tris-HCl (pH 7.9), 0.1 mM EDTA, 1 mM DTT, and 10% (v/v) glycerol. Aliquots of each column fraction were analyzed by 10% Tris-Tricine SDS-polyacrylamide gel electrophoresis, and the proteins were visualized by silver staining.

B1: Elongin C internal deletion mutant C(Δ21-30) (other)
chain: MDGEEKTYGGCEGPDAMYVKVKREHALTSGTIKAMLSGPGQFAENETNEVNFREIPSHVLSKVCMYFTYKVRYTNSSTEIPEFPIAPEIALELLMAANFLDC
- binding result (wild type Elongin A): no binding
- binding result (wild type Elongin B): no binding
